Reference: US7297515 (MYRIAD GENETICS, dated 2007)
Blank lines part the entries; values can stand above or below the binder they belong to.

Legend:
[1] = molecular target: T1, novel protein PN1851, fragment residues 14-369 (human, UniProt P04386 768-881 (Saccharomyces cerevisiae entry)); experiment: yeast two-hybrid search, bait ZNF202 33-118
T1 construct: range 768-881
From the text: (§1) The new construct was selected directly in the yeast strain PNY200 for its ability to drive tryptophane synthesis (genotype of this strain: MATα trp1-901 leu2-3, 112 ura3-52 his3-200 ade2 gal4Δ gal80). In these yeast cells, the bait was produced as a C-terminal fusion protein with the DNA binding domain of the transcription factor Gal4 (amino acids 1 to 147). Prey libraries were transformed into the yeast strain BK100 (genotype of this strain: MATa trp1-901 leu2-3,112 ura3-52 his3-200 gal4Δ gal80 LYS2::GAL-HIS3 GAL2-ADE2 met2::GAL7-lacZ), and selected for the ability to drive leucine synthesis. In these yeast cells, each cDNA was expressed as a fusion protein with the transcription activation domain of the transcription factor Gal4 (amino acids 768 to 881) and a 9 amino acid hemagglutinin epitope tag. PNY200 cells (MATα mating type), expressing the bait, were then mated with BK100 cells (MATa mating type), expressing prey proteins from a prey library. The resulting diploid yeast cells expressing proteins interacting with the bait protein were selected for the ability to synthesize tryptophan, leucine, histidine, and adenine. […]

[2] = molecular target: T2, zinc finger protein 202, alt. transcript beta (ZNF202b), bait fragment amino acids 1-199 (human, UniProt P04386 1-147; O95125 1-199); experiment: yeast two-hybrid; prey fragment isolated with ZNF202b bait 1-199
T2 construct: also called ZNF202beta; ZNF202 m1
From the text: as §1, with “In” for “The new construct was selected directly in the yeast strain PNY200 for its ability to drive tryptophane synthesis (genotype of this strain: MATα trp1-901 leu2-3, 112 ura3-52 his3-200 ade2 gal4Δ gal80). In”, “adenine. DNA was prepared from each clone, transformed by electroporation into *E. coli* strain KC8 (Clontech KC8 electrocompetent cells, Catalog No. C2023-1), and the cells were selected on ampicillin-containing plates in the absence of either tryptophane (selection for the bait plasmid) or leucine (selection for the library plasmid). DNA for both plasmids was prepared and sequenced by the dideoxynucleotide chain termination method.” for “adenine.”

[3] = molecular target: T3, zinc finger protein 202, alt. transcript beta (ZNF202b), bait fragment amino acids 1-224 (human, UniProt P04386 1-147; O95125 1-224); experiment: yeast two-hybrid; prey fragment isolated with ZNF202b bait 1-224
T3 construct: also called ZNF202beta; ZNF202 m1
From the text: as §1, with “In” for “The new construct was selected directly in the yeast strain PNY200 for its ability to drive tryptophane synthesis (genotype of this strain: MATα trp1-901 leu2-3, 112 ura3-52 his3-200 ade2 gal4Δ gal80). In”, “adenine. DNA was prepared from each clone, transformed by electroporation into *E. coli* strain KC8 (Clontech KC8 electrocompetent cells, Catalog No. C2023-1), and the cells were selected on ampicillin-containing plates in the absence of either tryptophane (selection for the bait plasmid) or leucine (selection for the library plasmid). DNA for both plasmids was prepared and sequenced by the dideoxynucleotide chain termination method.” for “adenine.”

binding result [1]: binds
B1: zinc finger protein 202, alt. transcript beta (ZNF202b), bait fragment amino acids 33-118 (other, UniProt P04386 1-147, looked up)
chain: MKLLSSIEQACDICRLKKLKCSKEKPKCAKCLKNNWECRYSPKTKRSPLTRAHLTEVESRLERLEQLFLLIFPREDLDMILKMDSLQDIKALLTGLFVQDNVNKDAVTDRLASVETDMPLTLRQHRISATSSSEESSNKGQRQLTVSSVLQRDDPVLETSHQNFRRFRYQEAASPREALIRLRELCHQWLRPERRTKEQILELLVLEQFLTVLPGELQSWVRGQRPESGEEAV
notes: also called ZNF202beta; ZNF202 m1

B2: novel protein PN7745, prey fragment amino acids 44-171 (other, not shown: small tags and cut ends)
chain: ANFNQSGNIADSSLSFTFTNSSNGPNLITTQTNSQALSQPIASSNVHDNFMNNEITASKIDDGNNSKPLSPGWTDQTAYNAFGITTGMFNTTTMDDVYNYLFDDEDTPPNPKKENAADAESFRQRFRWFCYSEVAGPRKALSQLWELCNQWLRPDIHTKEQILELLVFEQFLTILPGEIRIWVKSQHPESSEEVVTLIEDLTQILEEKDPVSEDSTVSQEENSKEDKMVTVCPNTESCESAL
notes: range 768-881; Yeast two-hybrid prey
binding result [2]: binds

B3: novel protein PN7745, prey fragment amino acids 2-171 (other, not shown: small tags and cut ends)
chain: ANFNQSGNIADSSLSFTFTNSSNGPNLITTQTNSQALSQPIASSNVHDNFMNNEITASKIDDGNNSKPLSPGWTDQTAYNAFGITTGMFNTTTMDDVYNYLFDDEDTPPNPKKEQAVVPLNKMTAISPEPQTLASTEQNEVPRVVTSGEQEAILRGNAADAESFRQRFRWFCYSEVAGPRKALSQLWELCNQWLRPDIHTKEQILELLVFEQFLTILPGEIRIWVKSQHPESSEEVVTLIEDLTQILEEKDPVSEDSTVSQEENSKEDKMVTVCPNTESCESAL
notes: as for B2
binding result [2]: binds
binding result [3]: binds

B4: novel protein PN7745, prey fragment amino acids 2-156 (other, not shown: small tags and cut ends)
chain: ANFNQSGNIADSSLSFTFTNSSNGPNLITTQTNSQALSQPIASSNVHDNFMNNEITASKIDDGNNSKPLSPGWTDQTAYNAFGITTGMFNTTTMDDVYNYLFDDEDTPPNPKKEQAVVPLNKMTAISPEPQTLASTEQNEVPRVVTSGEQEAILRGNAADAESFRQRFRWFCYSEVAGPRKALSQLWELCNQWLRPDIHTKEQILELLVFEQFLTILPGEIRIWVKSQHPESSEEVVTLIEDLTQILEEKDPVSEDSTVSQEENSKEDK
notes: as for B2
binding result [3]: binds
